Test results published in a protein production outcome set (Wang et al. 2014).

Experiment: label from the status in PepcDB records

Row | Sequence | protein production
1 | MSFKNDHKYQWKDMQGKDFLLPFIYLIGNFCLSIVILTIMIGINETQGKNNANFNANFSGTPGILMEMIAFIIIFALWILFHRHSFRQSWKQGLQNIKQHWKLIVITFIVIIVFKEIYPYLVNAFAPEHWKFEETQNDKMVEEMFATPVSTILAFFSIVIIAPMTEEFLFRHLIIGELGKKLNFYVMSVISIIVFASLHVTEAKSPLEIVMYLAIAVGIVYVYMKSQRSLAVAIALHALNNLLAYIFMIIM | failed
2 | MKTVLAFGDSLTWGADPATGLRHPVEHRWPDVLEAELAGKAKVHPEGLGGRTTCYDDHAGPACRNGARALEVALSCHMPLDLVIIMLGTNDIKPVHGGRAEAAVSGMRRLAQIVETFIYKPREAVPKLLIVAPPPCVAGPGGEPAGGRDIEQSMRLAPLYRKLAAELGHHFFDAGSVASASPVDGVHLDASATAAIGRALAAPVRDILG | not failed
3 | MRFKAIFVRVTKELLRDKRTLALMLVAPVLVLTLMYFIFDTNNDVNLEVGVDESVPNKIVNALPSDKVKIKEYDSPSSIKKTIVNSDLDAYIEKKGDKLDVTYKNENPSNTGTTKQLLGSAIQKNKLQDMAKVINKIPSNIKQGNSAQGEQITLDNHYLYGNSDSTFFDKMFPILIGFFVFFFVFLISGIALLRERTKGTLERLLATSVKRSEIVFGYLAGYGMFAVLQTLIIVFYAIYLLKIDVAGSIWWVLLINILIALSALAMGIFVSTFANSEFQMVQFIPLVVIPQVFFSGIIPLDNVADWVSSIGYIFPLRYAGDALTNIMIKGEGFNNIWFDLSILLVFIIGFTVLNIIGLKRYRKV | not failed
4 | MSQSTHQSTDHKRQSQDKNQTHAYAKVWLYFMYYWMIFGIGCYFGQYLPMSWRKPLSLGLLILILATLFIKRARKYGLVISHIYAIIVGLLSYALFTTYLQNLGAEVFYKNIILAIGAFIAFGIIGYFLIKDASSMGKYLFVTLIALIIAGIIGIFINNPIFHTVITIVSLLLFLLYTLYDFNRMKRGQFSPREMGFNLFINLLNIIEDILSLANRFKN | failed
5 | MKTIAVLLTALLLATGCGNKESTGETASDEPEIVMMDESTSVGELPSILKEGLSNKEQDELKKQIMPILDDGLTPEQRFLNLRKDAEAGNAEAQNSLGSMYFSGEAISRDAQGKVKDKDPETAAGWFFRAAEQGHAGAQFNLGLLYFSGEGVTRDTAKAVELFTKSAEQGNIDAQNNLGVIYLMGEGVKQNTDKAIEWFEKAAEQGNEEAIKNLEAVRASQQDSKEAADKQK | failed
6 | MLRIYAPASSANISVGFDTLGAAISPIDGSLLGDVVQIESISTGFELESAGYFVRKLPKEPQKNIVYQAYVLFSEQLKLRGANVKPLRLTLEKNMPIGSGLGSSACSIVAALVALNQFHNEPFSKMELLEMMGELEGRISGSIHYDNVAPCYLGGVQFMVQS | failed
7 | MAIGMSELKKGLKIELGGVPYRIVEYQHVKPGKGAAFVRAKIKSFLDGKVIEKTFHAGDKCEEPNLVEKTMQYLYHDGDTYQFMDIESYEQIALNDSQVGEASKWMLDGMQVQVLLHNDKAISVDVPQVVALKIVETAPNFKGDTSSASKKPATLETGAVVQVPFHVLEGEIIKVNTETEEYLEKVK | failed
8 | MRYVVGHKNPDTDSIASAIVLAYFLDCYPARLGDINPETEFVLRKFGVMEPELIESAKGKEIILVDHSEKSQSFDDLEEGKLIAIIDHHKVGLTTTEPILYYAKPVGSTATVIAELYFKDAIDLIGGKKKELKPDLAGLLLSAIISDTVLFKSPTTTDLDKEMAKKLAEIAGISNIEEFGMEILKAKSVVGKLKPEEIINMDFKNFDFNGKKVGIGQVEVIDVSEVESKKEDIYKLLEEKLKNEGYDLIVFLITDIMKEGSEALVVGNKEMFEKAFNVKVEGNSVFLEGVMSRKKQVVPPLERAYNG | not failed
9 | MNFVLSDVADAEAEKAIRDPLVAYNLARFGESDKRDLNITIRNDDNSVTGGLVGHTARGWLYVQLLFVPEAMRGQGIAPKLLAMAEEEARKRGCMGAYIDTMNPDALRTYERYGFTKIGSLGPLSSGQSITWLEKRF | not failed
10 | MNVLFTSVPQEDVPFYQEALKDLSLKIYTTDVSKVPENELKKAELISVFVYDKLTEELLSKMPRLKLIHTRSVGFDHIDLDYCKKKGILVTHIPAYSPESVAEHTFAMILTLVKRLKRIEDRVKKLNFSQDSEILARELNRLTLGVIGTGRIGSRVAMYGLAFGMKVLCYDVVKREDLKEKGCVYTSLDELLKESDVISLHVPYTKETHHMINEERISLMKDGVYLINTARGKVVDTDALYRAYQRGKFSGLGLDVFEDEEILILKKYTEGKATDKNLKILELACKDNVIITPHIAYYTDKSLERIREETVKVVKAFVKGDLEQIKGNFVVGPS | not failed
11 | IESASDMIAAFGKDQRFITFNEAYQREFKRLFDKSISINMSLEEAFNNAPENKKKLVQSWKESLQRDEETKNIEVNTEQEKTIYEMTSKLIQNGDNEIKGVVHSVRNIT | failed
12 | MLLSIIMPAHNAAAYLERTLALLAQQIAGLEQVEVVAIDDASTDETAKILVEFARTHSWLKAISVDFANVGLARQAGIGLAGGQYVTFLDSDDAFLSGGLAWMVNVLRQRAPDLLMTPLQETGQPLDGTEVAGLFQDVVPLSTQQACDLFCEHQRLQGHFAGKCVTRQILLQHDLAAMECYEDMMTTPHWIVEAKSIVWGEVPVYAYYKRPGSLSDRGQTWRYGKEYIRALQSIEAAFAGRIAVWQTAHLWIGFAKDLLKTSTGRQFLDTQPAVAEKIQSISVWKYLVATQVSCKWKIRFLRVRLRLLEHHHHHH | not failed
13 | MKYLCLIYFDEAKLAAVPAEELAAIVDECMTYSDQLGKAGHYIASHALQSVQTATTLRHQGGRLAMTDGPFAETKEQLGGFYLIEARDLNQALQIAAKIPPGRLGCVEVRPVKEWE | not failed
14 | MSRSAFTALLLSCVLLALSMPARADDLPYRFGLGKADITGEAAEVGMMGYSSLEQKTAGIHMRQWARAFVIEEAASGRRLVYVNTDLGMIFQAVHLKVLARLKAKYPGVYDENNVMLAATHTHSGPGGFSHYAMYNLSVLGFQEKTFNAIVDGIVRSIERAQARLQPGRLFYGSGELRNANRNRSLLSHLKNPDIVGYEDGIDPQMSVLSFVDANGELAGAISWFPVHSTSMTNANHLISPDNKGYASYHWEHDVSRKSGFVAAFAQTNAGNLSPNLNLKPGSGPFDNEFDNTREIGLRQFAKAYEIAGQAQEEVLGELDSRFRFVDFTRLPIRPEFTDGQPRQLCTAAIGTSLAAGSTEDGPGPLGLEEGNNPFLSALGGLLTGVPPQELVQCQAEKTILADTGNKKPYPWTPTVLPIQMFRIGQLELLGAPAEFTVMAGVRIRRAVQAASEAAGIRHVVFNGYANAYASYVTTREEYAAQEYEGGSTLYGPWTQAAYQQLFVDMAVALRERLPVETSAIAPDLSCCQMNFQTGVVADDPYIGKSFGDVLQQPRESYRIGDKVTVAFVTGHPKNDLRTEKTFLEVVNIGKDGKQTPETVATDNDWDTQYRWERVGISASKATISWSIPPGTEPGHYYIRHYGNAKNFWTQKISEIGGSTRSFEVLGTTP | failed
15 | MGKEITENIIDVEFKCNHFKMNGYIGNNNIYRSNKNLQHIYINKRFVKSKIIIDAITESYKSIIPIGKHAVCFLNIEVDPSCIDVNIHPNKLEIKFEKEQEVYIELRDFLKVKLIHSNLIGLEHHHHHH | failed
16 | MNELPIILLSPLIGGALAWLIRVKGIREAIGVVSSAIPLYFLIKLYPALEGEPIRYSLNVGGFELTLALSHISWIFAMIAAVVGLSAVLGLVSTAKDSNEWLFALMSLAGALGVFLANDFVVFFLSWEIMTFASFMMVFKYNRHASLKYFVLSIAGAYAMLLAIGIIYAKTGSLSFPEISAIFRQDAMMGMMGGGGVFTKTETLLIYALFLVAFGVKAGMFPLHVWAPDAYSETNQSYTAMFSGVLSKTGVYGFFLLYLLMYGKLAITLGNVRSAPTFGYIIAFLGGLTIMVGGILAALQEDIRKLFAYSSISQIGYILIGLGIGTPLGIAAATYHAISHALFKGLFFLIVATIIYRTGKTEFKDYGGLAEKMPITFAMAFVAILSLAGIPPMAGFASKWLIFEAVISRNLPILGAMVFFGSAIGFVYLIRFTYAVWFGQRPSDLEDVKDAPLPLAIGMGILAILNVIFGVAPGLVARELNKLFSNPPIGGTIWELDLGFGRYNGLLLSIWLVIGLIIAAILYFMGAGVRKVPVTDTYQSGNPVTMEYNLTIRRNFFLPLKEAMAFWLKMSFDRLYHDIWKAIEELADLARSYVYNGNIQAYAWYLAIILLILVAMGV | failed
17 | MKEDIVSGTVKRVERHGIIVEVVAGKLDALIPRDQMIPRENFRSGDRIRALFLRVEEIGNTGRKQVILSRTSGLEHHHHHH | not failed
18 | MGPVPIKLALVIPNYNHSAAISQALSELAALNLPCYLIDDGSNDETRYLLQSLAEQHDWVTLLQHPYNRGKGAAVMTGLRSAYRDGFTHALQVDADGQHNLSDIPAMLAKAQAKPDALISGKPEYDKSVPKGRLYGRYLTHFWVWVETLSFDIQDSMCGFRVYPLAATERLFSKQALTERMDFDIEILVKLYWQGVEILFHPTKVIYPENGVSHFQCVADNVRISKLHTRLFFGMLKRLPQLLRRKQAAKSTSSAHTATHWSAMKERGSYWGIKLLVESYRFGGHWLCRAIMYPVICYFFLTGKVSREASRDFLRRVQHLEPQHPQLNQPVGWRDSLNHFIAFGNAALDRIDAWCDRIQLSQVDFPDRQVLADQLESGKGAVLLVSHLGNLELCRAISIHQRKVKVNVMVLTSHAENFNNVLKQLNPNSSLNLIQVTELNPATSMLLQQKIEDGELVVIAGDRTSSHAQGRVVYAPFMGQDAAFPQGPFILAGLLDCPVYLMFCLREQGRYRVHLERFAETLKGPRAGRMERLQQAVYRYSERLEHYARREPLQWFNFFDFWRDDNQVNRATSAHKTTAALPEQERTTDRTEHLLEHHHHHH | not failed
19 | QQKLAANVFKNSQDGVLIYDADGKLTLMNPAFTDIFGYQMSELSNIPMLTLFDGHHFTTSTSLITESIQRFGQWHGEVLEKDKYGAELPLYVKASKIIDTEQYGQNSYIFIFTNLS | failed
20 | MKGREMKIVEFMKDKMVYIVFTLIFSSIYAGVHHRSIFLSLKVTLPIALFMMLFQPMVFMDIKKAFTTRTRVKTKYLILLTFFYTLLFPVLTWIFLKFWLRMMPNTEPQLLAGMVLIGLAPLPSSSPAFTNLAGGRFQLTLVGVMWTFLLSIFVMPFYAKLILHTIIQVPIEMLLKSLILYIITPLIIGQLTKYIILHWKGTDALISLKKPLIGISLIGMYWMIVVVFGINAKVIVERPELILIGAITMNIYFLLRAAIAYFIGKALDFPFEQNISLVYSTGSNMTLATAMAIGTFGPLAAVGTALGGPFSDMLLMIFFVKLFTLIRKKYIHNERKSITGG | failed
21 | MEQTEHIPPPGLVAQLRERSLLQTGDRFETLYGGRTNRVWRLHGPADDLVVKLYRRDFDNPLFGNDAQLEALCLDRLEGTGLAPQLRASGALGQEAWVVYDHAPGAPWRTDPAIAARMLANLHRRALDIPAPAGCNGSAAIRTHAEAILSRCDQPDRELLLKARPHTATIAPGPACLIHGDPVAGNLLVSGDQAILIDWQCPAIGDPAEDLAMFLSPAMQQVYRGAPLTAAEEQQFLSAYDNAGTVARYLSLKPWFHWRMAAYCRWRARNGAPDYAPAFELEHAALAAC | failed
22 | MNFNYQTAWPSLSRSFEWSPAMTSSSVNPAEKFDRSRADEYARQSRIALAGYDACHDLAACMLAASLGEGRAAHILAVGAGGTAQEIIAMASLEPGWRFTAVDPSAPMLETARQQLQAQGLLERTEVRLATVDELAADEPFDGATLIGVLHHLPGDEAKRQLLRAIARRLKPGAPLIVAGNHYAYAGQPLLLAAWGQRWRQQGATADEVHAKLGKILQGADPPHSEAAVQRLLEEGGFSAGTRFFSSLFWGAWLSRKRC | failed
